This note sets out measurements from US20230034474A1 (AC IMMUNE, published 2023).

For assay [1], the target named is T1, Abeta1-42 (human).
T1 construct: coated on plates in the direct ELISA, in solution as analyte in the sandwich ELISA; also called human Abeta 1-42; amyloid-beta 1-42
As to the kind of experiment: indirect ELISA, Abeta1-42 coated, antibody titrated. For orientation: An ELISA detects its analyte on a solid surface through an enzyme-linked reagent.
Description: (§1) Antibody target binding was evaluated by an enzyme-linked immunosorbent assay (ELISA). Briefly, Nunc MaxiSorp 96-well plates (Nunc) were coated for 18 h at 4° C. with 50 μL of 10 pg/mL Abeta1-42 or bovine serum albumin (BSA, Sigma) diluted in PBS. In selected assays, the full-length sAPPalpha fragment (Sigma) was additionally included by coating wells as described above, but at 4 pg/mL (0.04 μM). Plates were then washed 4-times with 300 μL of PBS containing 0.05% Tween20 (Millipore). To block non-specific binding to the plate, freshly prepared solution of PBS containing 0.05% Tween20 and 1% BSA, was added to each well (100 μL/well) and the plates were incubated for 1 h at 37° C. Primary antibodies were diluted to 100 nM in PBS containing 1% BSA and 0.05% Tween20, followed by 3-fold serial dilutions in duplicates. Solutions were added to plates at 50 μL/well and incubated for 1 h at 37° C. Subsequently, the plates were washed 4-times with 300 μL of PBS containing 0.05% Tween20. Plates were then incubated with horseradish peroxidase (HRP) conjugated goat anti-mouse secondary IgG (Abcam) for 1 h at 37° C. After final wash step (4-times with 300 μL of PBS containing 0.05% Tween20), plates were incubated with 3,3′,5,5′-tetramethylbenzidine (TMB) substrate (BD Biosciences) and reaction stopped with a Stop Solution (Sigma). Finally, optical densities (O.D.) were read at 450 nm absorption wavelength using a Tecan Infinite plate reader. Measured values are expressed as mean O.D. from a duplicate run ±1 standard deviation of the mean (S.D.).

For another assay, the target named is T2, bovine serum albumin (bovine, UniProt P02769 25-607).
T2 construct: Negative control antigen; also called BSA
The experiment in a line: indirect ELISA, plate coated with BSA, antibody titrated, anti-mouse IgG-HRP, O.D. 450 nm.

For assay [2], the target named is T3, Human Abeta1-42 biotinylated at the peptide C-terminus (human, biotin at the peptide C-terminus).
T3 construct: also called biotinylated Abeta1-42
As to the kind of experiment: target capture ELISA.
Description: Briefly, a Nunc MaxiSorp 96-well plate (Nunc) was coated for 18 h at 4° C. with 50 μL of 5 pg/mL goat anti-mouse IgG, Fc-gamma fragment specific antibody (Jackson Immune Research) diluted in carbonate-bicarbonate buffer. The plate was then washed 4-times with 300 μL of PBS containing 0.05% Tween20 (Millipore). To block non-specific binding to the plate, freshly prepared solution of PBS containing 0.05% Tween20 and 1% BSA, was added to each well (100 μL/well) and the plate was incubated for 1 h at 37° C. […] Subsequently, the plate was washed 4-times with 300 μL of PBS containing 0.05% Tween20. […] After washing 4-times with 300 μL of PBS containing 0.05% Tween20, the plate was incubated for 45 min at ambient temperature with 50 μL/well of streptavidin-HRP (R&D systems) diluted 1:200 in PBS containing 1% BSA and 0.05% Tween20. The plate was again washed 4-times with 300 μL of PBS containing 0.05% Tween20 before incubating at ambient temperature for 20 or 30 min with 50 or 100 μL/well of 3,3′,5,5′-tetramethylbenzidine (TMB) enzyme substrate (BD Bioscience). Reaction was stopped with a 1.2 M HCl (Sigma) solution. Finally, optical densities (O.D.) were read at 450 nm absorption wavelength using a Tecan Infinite plate reader.

Assay [3] has as its target T4, full-length sAPPalpha fragment (UniProt P05067-4 18-612, limits assumed).
T4 construct: domain: sAPPalpha; Bought protein; also called soluble APP alpha; soluble amyloid precursor protein alpha
As to the kind of experiment: indirect ELISA, sAPPalpha coated.
Description: as §1

For assay [4], the target named is T1, Abeta1-42. The experiment in a line: indirect ELISA, plate coated with Abeta1-42, antibody titrated, anti-mouse IgG-HRP, O.D. 450 nm.
Description: (§2) Antibody target binding was evaluated by an enzyme-linked immunosorbent assay (ELISA). Briefly, Nunc MaxiSorp 96-well plates (Nunc) were coated for 18 h at 4° C. with 50 μL of 10 pg/mL Abeta1-42 or bovine serum albumin (BSA, Sigma) diluted in PBS. In selected assays, the full-length sAPPalpha fragment (Sigma) was additionally included by coating wells as described above, but at 4 pg/mL (0.04 μM). Plates were then washed 4-times with 300 μL of PBS containing 0.05% Tween20 (Millipore). To block non-specific binding to the plate, freshly prepared solution of PBS containing 0.05% Tween20 and 1% BSA, was added to each well (100 μL/well) and the plates were incubated for 1 h at 37° C. Primary antibodies were diluted to 100 nM in PBS containing 1% BSA and 0.05% Tween20, followed by 3-fold serial dilutions in duplicates. Solutions were added to plates at 50 μL/well and incubated for 1 h at 37° C. Subsequently, the plates were washed 4-times with 300 μL of PBS containing 0.05% Tween20. Plates were then incubated with horseradish peroxidase (HRP) conjugated goat anti-mouse secondary IgG (Abcam) for 1 h at 37° C. […] Finally, optical densities (O.D.) were read at 450 nm absorption wavelength using a Tecan Infinite plate reader. Measured values are expressed as mean O.D. from a duplicate run ±1 standard deviation of the mean (S.D.).

T4 sequence (P05067 other isoform, or with tags, fused parts or gaps limits assumed): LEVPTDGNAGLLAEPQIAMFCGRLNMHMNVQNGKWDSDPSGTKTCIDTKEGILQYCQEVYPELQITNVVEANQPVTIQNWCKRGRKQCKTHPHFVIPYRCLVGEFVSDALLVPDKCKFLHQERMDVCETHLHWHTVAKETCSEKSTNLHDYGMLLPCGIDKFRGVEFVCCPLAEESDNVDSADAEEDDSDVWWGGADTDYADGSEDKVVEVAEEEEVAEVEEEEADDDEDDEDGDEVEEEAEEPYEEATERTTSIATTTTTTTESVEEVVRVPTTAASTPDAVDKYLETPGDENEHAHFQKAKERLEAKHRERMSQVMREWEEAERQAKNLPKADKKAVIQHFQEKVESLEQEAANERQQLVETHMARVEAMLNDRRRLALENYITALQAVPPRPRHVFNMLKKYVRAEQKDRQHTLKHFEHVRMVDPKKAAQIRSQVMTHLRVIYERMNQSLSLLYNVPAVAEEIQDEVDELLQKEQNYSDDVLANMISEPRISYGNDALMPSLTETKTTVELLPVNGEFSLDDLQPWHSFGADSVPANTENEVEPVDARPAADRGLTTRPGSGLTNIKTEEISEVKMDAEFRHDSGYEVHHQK
Description for bovine serum albumin: as §2

B1: ACI-31-30C11-Ab1 (murine IgG2a with a kappa light chain) (antibody, V domains shown)
VH: QVQLQQSGPELVKPGASVKISCKASGYAFSSSWLNWVKQRPGEGLEWIGRIYPGDGDINYNGKFKGKATLTADKSSSTAYMQLSSLTSDDSAVYFCTKRGRYALDYWGQGTSVTVSS
VL: DIVLTQSPASLAVSLGQRATISCRASKSVDNYGKSFMHWFQQKPGQPPKLLIYRASNLESGIPARFSGSGSRTDFTLTINPVEADDVATYYCQQSNEDPYTFGGGTKLEMKR
notes: also called AC-31-30C11-Ab1
In the case of B1, in the assay with Abeta1-42 [1], binding was put at a Kd of 0.196 nM. The binding result is listed as “no binding (tested: 100 nM)” in the assay with bovine serum albumin, “binds” in assay [2] and “no binding” in assay [3]. The EC50 (read off the curve) (as a rule, the concentration at which the effect is half-maximal) with Abeta1-42 [4] is ~0.2 nM.
